# According to patent publication US20220098319A1 (SHANGHAI PHARMAEXPLORER, published 2022):
# Residue numbers refer to the chain shown, from its start.
# T1: human CD73 (full length, on transfected CHOK1 cells) (human, UniProt P21589 27-549)
# T1 sequence (looked up): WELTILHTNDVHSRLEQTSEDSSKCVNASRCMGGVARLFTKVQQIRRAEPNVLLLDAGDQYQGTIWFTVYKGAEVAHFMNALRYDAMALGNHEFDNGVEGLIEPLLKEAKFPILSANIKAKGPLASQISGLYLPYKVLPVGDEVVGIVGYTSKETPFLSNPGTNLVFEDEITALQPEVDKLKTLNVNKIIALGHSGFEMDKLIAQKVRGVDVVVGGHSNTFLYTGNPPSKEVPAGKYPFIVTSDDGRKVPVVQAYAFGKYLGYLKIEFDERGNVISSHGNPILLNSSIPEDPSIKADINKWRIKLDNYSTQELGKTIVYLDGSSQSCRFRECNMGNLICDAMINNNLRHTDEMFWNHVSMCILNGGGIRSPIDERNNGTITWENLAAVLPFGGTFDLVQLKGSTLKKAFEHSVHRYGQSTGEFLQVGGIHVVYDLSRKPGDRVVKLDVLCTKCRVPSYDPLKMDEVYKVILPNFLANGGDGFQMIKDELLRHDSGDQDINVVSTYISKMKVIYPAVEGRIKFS
# T2: cynomolgus monkey CD73 (on transfected CHOK1 cells) (cynomolgus monkey, UniProt A0A2K5V5U7 27-549)
# T2 construct: whole, on cells; also called CHOK1-cCD73; CHOK1-CCD73
# T2 sequence: T1 sequence (looked up) with M199T, T350A, V466I
# T3: murine CD73 (on transfected CHOK1 cells) (mouse, UniProt Q61503 29-551)
# T3 construct: whole, on cells; also called CHOK1-mCD73; mCD73
# T3 sequence (looked up): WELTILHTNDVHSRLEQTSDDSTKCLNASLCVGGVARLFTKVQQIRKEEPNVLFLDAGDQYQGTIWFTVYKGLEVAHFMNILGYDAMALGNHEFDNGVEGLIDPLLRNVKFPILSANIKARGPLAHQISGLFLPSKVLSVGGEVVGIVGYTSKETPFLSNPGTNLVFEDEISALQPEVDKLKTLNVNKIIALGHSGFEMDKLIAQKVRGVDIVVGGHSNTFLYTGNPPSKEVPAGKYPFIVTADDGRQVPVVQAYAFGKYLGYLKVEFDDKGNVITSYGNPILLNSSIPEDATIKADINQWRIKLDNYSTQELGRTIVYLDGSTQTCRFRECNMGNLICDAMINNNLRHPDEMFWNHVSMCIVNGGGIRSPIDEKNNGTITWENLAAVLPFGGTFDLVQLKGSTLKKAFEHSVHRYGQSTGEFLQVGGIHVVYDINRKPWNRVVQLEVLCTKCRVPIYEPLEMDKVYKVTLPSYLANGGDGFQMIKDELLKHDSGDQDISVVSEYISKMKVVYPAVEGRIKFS
# B1: mAb065 (clone 125A4E10), murine anti-CD73 antibody (antibody, V domains shown)
# VH: EVQLQQSGPELVKPGASVKISCKASGYTFTDYYMNWVKQSHGKSLEWIGNINPNNGDTNYNQKFKGKATLTVDKSSSTASMELRSLTSEDSAVYYCANSGYYYFDYWGQGTTLTVSS
# VL: DIVMTQSPSSLTVTAGEKVTMSCKSSQSLLNSGNQKNYLTWYQQKPGQPPKVLIYWASTRESGVPDRFTGSGSGTDFTLTISSVQAEDLAVYYCQNDYSYPPTFGGGTNLEIK
# notes: Purified from hybridoma supernatant
# B2: mAb042 (clone 77B9A3), murine anti-CD73 antibody (antibody, V domains shown)
# VH: QVQLQQSGAGLVKPGASVKLSCKASGYTFTNYWMHWVKQRPGQGLEWIGMIHPNSGSTNNNEKFKNKATLTVDKSSNTAYMQLSSLTSEDSAVYYCARFFFGGYPHYYALDYWGQGTSVTVSS
# VL: DIVMTQSQKFMSTTVGDRVSITCKASQNVGTAVAWYQQKPGQSPKLLIYSASDRYTGVPDRLTGSGSGTDFTLTISNVQSEDLADYFCQQYSSFPLFTFGSGTKLVIQ
# notes: as for B1
# B3: mAb020 (clone 24D6B4), murine anti-CD73 antibody (antibody, V domains shown)
# VH: EVQLQQSGPELVKPGASVKIPCKASGYTFTDYNMDWVKQRHGKSLEWIGDINPNNGGTVYNQKFKGKATLTVDKSSNTAYMELRSLTSEDTAVYYCARISGTGYWYFDVWGTGTTVTVSS
# VL: DIQMTQSPASLSVSVGETVTITCRASENIYSNLAWYQQKQGKSPQLLVYGATNLADGVPSRFSGSDSGTQYSLKINSLQSEDFGSYYCQHFWGTPWTFGGGTKLEIK
# notes: as for B1
# B4: mAb038 (clone 69C9E12), murine anti-CD73 antibody (antibody, V domains shown)
# VH: QVQLQQPGTELVNPGASVKLSCKASGYTFTSYWMHWVKQRPGQGLEWIGNINPSNGGTHYNEKFNNKATLTVDKSSSTAYMQLSSLTSEDSAVFYCARGDYAYDWYFTVWGTGTTVTVSS
# VL: DIVLTQSPASLAVSLGQRAIISCKASQSVSFAGTGLMHWYQQKPGQQPKLLIYRVSNLEAGIPTRFSGSGSRTDFTLNIHPVEEDDAATYYCQQNREFPWTFGGGTKLEIK
# notes: as for B1
# B5: mAb041 (clone 71E10B3), murine anti-CD73 antibody (antibody, V domains shown)
# VH: QVQLQQPGTELVKPGASVKLSCKASGYTFTSYWMHWVKQRPGQGLEWIGNINPSNGGTNYNQKFKSKATLTVDKSSNTASMQLSSLTSEDSAVYYCARGDYGYDWYLDVWGTGTTVTVSS
# VL: B4 VL with T34P, G35S, V55T, I62V, R72G
# notes: as for B1
# B6: mAb034 (clone 60G1C8), murine anti-CD73 antibody (antibody, V domains shown)
# VH: DVQLQESGPGLVKPSQSLSLTCSVTGYSITSRYYWNWIRQFPGNKLEWMGYMTYDGTNNYNPSLTNRISITRDTSKNQFFLKLNSVTAEDTATYFCARGGWDPFDYWGQGTTLTVSS
# VL: DIQMTQSPAALSASVGETVTITCRASDNIYSYLAWYQQKQGKCPQLLVKNAKTLAEGVPSRFSGSGSGTQFSLRINSLQPDDFGTYYCQHYYGTPLTFGAGTKLELK
# notes: as for B1
# B7: mAb030 (clone 42A5A7), murine anti-CD73 antibody (antibody, V domains shown)
# VH: DIQLQESGPGLVKPSQSLSLTCSVTGYSITSRYYWNWIRQFPGNKLEWMGYITYDDNNNYNPSLKNRISITRDTSKNQFFLKLNSVTPEDTATYYCARGGWDPFLYWGQGTLVTVSA
# VL: DIQMTQSPASLSASVGETVTITCRASDNIYSYLAWYQQKQGKSLQLLVDSAKNLGEGVPSRFSGSGSGTQFYLKINSLQPEDFGVYYCQHYYGTPFTFGGGTKLELK
# notes: Purified from hybridoma supernatant; also called antibody 030
# B8: mAb036 (clone 66H6C12), murine anti-CD73 antibody (antibody, V domains shown)
# VH: QVQLQQSGAEVVKPGASVKISCKASGYVFSSYWINWVKQRPGKGLEWIGKIFPGNGDTDYNGNFKGKATLTADKSSSTAYMQLSSLTSEDSAVYFCAGFADWGQGTLVTVSA
# VL: DIQMTQSPSSLSASLGERVSLTCRASQDIGERLIWLQQEPDGTFKRLIYATSSLDSGVPKRFSGSSSGSDYSLTISRLESEDFVDYYCLQYASSPYTFGGGTKLEIK
# notes: as for B1
# B9: mAb044 (clone 80H7D6), murine anti-CD73 antibody (antibody, V domains shown)
# VH: EVKLVESGGGLVQPGGSLRLSCAASGFTFTDYYMSWVRQPPGKALEWLGFIRNKADGSTTEYSASVKGRFTISRDNSQSILYLQMNALRPEDSATYYCTRSPIYFDNWYFDVWGTGTTVTVSS
# VL: DIVMSQSPSSLAVSVGEKVTMTCKSSQSLLYSNNQKNYLAWYQQKPGQSPKLLIYWASTRESGVPDRFTGSGSGTDFTLTLSSVKAEDLAVYYCQQYYSYPFTFGSGTKLEIK
# notes: as for B1
# Molecular target: T1, human CD73 (full length, on transfected …)
# Experiment: cell-based or functional assay
"Enzyme activity blocking assay, IC50","Enzyme activity blocking assay, MAX % inhibition",Binder
0.3 nM,56.4%,B1
0.1 nM,47.9%,B2
0.1 nM,63%,B3
1 nM,53.3%,B4
4 nM,35.7%,B5
0.1 nM,73.7%,B6
0.1 nM,74.6%,B7
0.2 nM,72.3%,B8
0.5 nM,53.5%,B9

# Molecular target: T2, cynomolgus monkey CD73 (on transfected …)
# Experiment: FACS on CHOK1-cCD73 cells
EC50,MAX MFI,Binder
2.5 nM,3250 MFI,B1
3.9 nM,8770 MFI,B2
3.4 nM,9960 MFI,B3
0.3 nM,7400 MFI,B4
1.9 nM,9570 MFI,B5
0.2 nM,3210 MFI,B6
0.4 nM,6310 MFI,B7
0.9 nM,7490 MFI,B8
3.4 nM,12300 MFI,B9

# Molecular target: T1, human CD73 (full length, on transfected …)
# Experiment: FACS on CHOK1-hCD73 cells
# Protocol: The titration binding curve was produced by the following method:
# The CHOK1 stable cell line transfected with human CD73 was expanded to a 75-90% confluence in a T-75 cell culture flask. The medium was aspirated, washed 1-2 times with PBS, and then treated with trypsin (Tryple express: Life technology) and cells were collected. The cells were washed with PBS buffer for 1-2 times. After counted, the cells were diluted with PBS to 1-2×10⁶ cells per ml, added with 1% fetal bovine serum (FBS) blocking solution, incubated on ice for 20-30 minutes, and then washed twice with HBSS by centrifugation. The collected cells were suspended with FACS buffer (PBS+2% FBS) to 2×10⁶ cells/ml, added to a 96-well FACS reaction plate at 100 microliters per well, and centrifuged at 300 g for 5 minutes to discard the supernatant. Anti-CD73 antibody was prepared with blocking solution to an initial concentration of 10 ug/ml and serially diluted at 8 points. 100 microliter per well of that antibody sample to be tested were added and incubated at 4° C. for 1-2 hours. […] The plate was washed 2-3 times with FACS buffer by centrifugation, added with 100 μl fixative solution (4% Paraformaldehyde) per well to suspend the cells. 5-10 minutes later, it was washed 1-2 times with FACS buffer by centrifugation. The cells were suspended with 100 microliters of FACS buffer, FACS (FACSCalibur, BD) was used for detection and the results were analyzed, as shown in FIG. 1 and Table 4.
EC50,MAX MFI,Binder
1.1 nM,4650 MFI,B1
> 10 nM,13900 MFI,B2
1.8 nM,7540 MFI,B3
0.4 nM,5230 MFI,B4
2.9 nM,8160 MFI,B5
> 10 nM,5820 MFI,B6
0.9 nM,6440 MFI,B7
0.3 nM,5290 MFI,B8
1.6 nM,7540 MFI,B9

# Molecular target: T3, murine CD73 (on transfected CHOK1 cells)
# Experiment: FACS on CHOK1-mCD73 cells
row,Binder,binding result
1,B1,no binding (tested: 10 ug/ml initial concentration)
2,B2,no binding (tested: 10 ug/ml initial concentration)
3,B3,no binding (tested: 10 ug/ml initial concentration)
4,B4,no binding (tested: 10 ug/ml initial concentration)
5,B5,no binding (tested: 10 ug/ml initial concentration)
6,B6,no binding (tested: 10 ug/ml initial concentration)
7,B7,no binding (tested: 10 ug/ml initial concentration)
8,B8,no binding (tested: 10 ug/ml initial concentration)
9,B9,no binding (tested: 10 ug/ml initial concentration)
